This experiment addresses Slx4-S486A^3Flag (budding yeast), Q12098. Kind of experiment: affinity purification with mass spectrometry. The following applies: remark: other sources report otherwise.

Sequence of Slx4-S486A^3Flag (budding yeast), Q12098 (Q12098 whole entry S486A): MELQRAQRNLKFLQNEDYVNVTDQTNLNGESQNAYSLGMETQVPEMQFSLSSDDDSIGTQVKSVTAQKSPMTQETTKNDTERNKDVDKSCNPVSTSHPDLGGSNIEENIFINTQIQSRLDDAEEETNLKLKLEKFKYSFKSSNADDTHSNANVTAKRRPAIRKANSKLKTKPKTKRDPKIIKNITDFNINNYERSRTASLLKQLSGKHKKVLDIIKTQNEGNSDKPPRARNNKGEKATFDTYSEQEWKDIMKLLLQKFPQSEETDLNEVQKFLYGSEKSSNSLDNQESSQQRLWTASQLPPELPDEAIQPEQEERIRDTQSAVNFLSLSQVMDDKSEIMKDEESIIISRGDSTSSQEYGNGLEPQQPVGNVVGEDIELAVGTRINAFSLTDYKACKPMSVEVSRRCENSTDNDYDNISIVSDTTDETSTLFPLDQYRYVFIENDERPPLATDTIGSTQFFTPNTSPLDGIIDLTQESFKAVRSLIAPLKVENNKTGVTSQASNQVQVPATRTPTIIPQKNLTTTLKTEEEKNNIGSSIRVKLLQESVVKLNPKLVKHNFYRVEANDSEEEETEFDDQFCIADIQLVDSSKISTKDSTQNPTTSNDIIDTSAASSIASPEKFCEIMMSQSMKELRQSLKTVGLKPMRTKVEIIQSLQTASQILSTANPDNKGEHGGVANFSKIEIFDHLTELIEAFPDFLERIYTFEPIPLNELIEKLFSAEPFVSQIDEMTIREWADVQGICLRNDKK

B1: Dpb11, endogenous, P47027 1-764 (natural protein)
chain: MKPFQGITFCPTAINNEILAKKISKKIIKLGGIFSKDLTRQVNVLVVGSTTNTNKFKFAVKHRFDIIFIDIQAIDDIYQLWLSGENILPDSNTATMTGSTYEMLKILYRRFSFKYLHNFNIFIGRITDTNITSIDSLVRSIKKLGCSSYNYQNFVIKDTSSHNDDDDQGQNGQISIFVTDTLLGARVNAAIEQNIPIVHFKWILDCQKRSALLPYDPYYLLPNIKDLPYDSIGSNSCDCWDKINTTFPTNIDAQSSLQRQQSSSTLTPSLPKTSSLLNKFKPKGEKIWDKAMSLQQHSKTNFSVLGQSPLSINNKQEDLSDNSTLIFKNCAFIIHHIFPGNHRSILTKIVVQNGGKIETSYLSGIYDHSYYIIPSNKALDSFNDLPEIIDDNDGIVTEFFIERCLYYQKLLHPIDLWSKPFLSTIEFQVSSSSKLLHHEFSSSPFLNVTITGFSGVELLHLTKVLNLLKPMGINYVEYLNKSTDILLINLAALPSIPKTHPLWSNEFSDLFTQFCINNNNDDPGDNNRKDFQNNSILRNSMKRKIEYIKKFHSIPVVTPAFIFKLLSAASGENNEIFLNNIKWCIICPRGHKDDFKCKIKKPYYTSISSEKKYQNNDPKIDKTILLKRNNSSLSEHSMKDTKNELLQKIRETDSGRKKRSVSSSIMDVSSERQMPDTKRIKLESLPKNFVPKQIKRTTSWGTIMSENVPTEQPTAISNPEEIPRTEEVSHTQVTYGSIQDKKRTASLEKPMRRQTRNQTKELDS
Turning to B1, the fold reduction of binding against wild-type Slx4^3Flag was determined as 8 fold.
